# Experimental data reported in the DeepSol protein solubility set.
# Test: soluble on expression in E. coli; label from the status in PepcDB or PDB records
row,Sequence,soluble on expression in E. coli
1,MPVSNEIWQLLSRLAEDIRPIGVNISAGEPNRLWTEAKWRALLERFPGERFVVLSGPDDLDAKRRLEEQCPNAVASPPTRNLYEASCIVAKLRLLVTPDTSMVHVASATGTPVAGLYREAPQDISRFGPYAIPYEIVISPTGEVSGIKPESVADAVRRLMARAIGREALEHHHHHH,not soluble
2,VKVQPNDYVFRDLANHNQIFVKDKDPKVYNNPYYIDQVQLKDAQQTDLTSIQASFTTLDGVDKTEILKELKVTDKNQNAIQISDITLDTSKSLLIIKGDFNPKQGHFNISYNGNNVTTRQSWEFKDQLYAYSGNLGAVLNQDGSKVEASLWSPSADSVTMIIYDKDNQNRVVATTPLVKNNKGVWQTILDTKLGIKNYTGYYYLYEIKRGKDKVKILDPYAKSLAEWDSNTVNDDIKTAKAAFVNPSQLGPQNLSFAKIANFKGRQDAVIYEAHVRDFTSDQSLDGKLKNQLGTFAAFSEKLDYLQKLGVTHIQLLPVLSYFYVNEMDKSRSTAYTSSDNNYNWGYDPQSYFALSGMYSEKPKDPSARIAELKQLIHDIHKRGMGVILDVVYNHTAKTYLFEDIEPNYYHFMNEDGSPRESFGGGRLGTTHAMSRRVLVDSIKYLTSEFKVDGFRFDMMGDHDAAAIELAYKEAKAINPNMIMIGEGWRTFQGDQGKPVKPADQDWMKSTDTVGVFSDDIRNSLKSGFPNEGTPAFITGGPQSLQGIFKNIKAQPGNFEADSPGDVVQYIAAHDNLTLHDVIAKSINKDPKVAEEDIHRRLRLGNVMILTSQGTAFIHSGQEYGRTKRLLNPDYMTKVSDDKLPNKATLIEAVKEYPYFIHDSYDSSDAINHFDWAAATDNNKHPISTKTQAYTAGLITLRRSTDAFRKLSKAEIDREVSLITEVGQGDIKEKDLVIAYQTIDSKGDIYAVFVNADSKARNVLLGEKYKHLLKGQVIVDADQAGIKPISTPRGVHFEKDSLLIDPLTAIVIKVGKVAPSPKEELQADYPKTQSFKGSKTVEKVNRIANKTSITPVVSNKTDSYLTNEANLEHHHHHH,soluble
3,AHHHHHHGSILEKAREILEEHQLCNHCLGRLFGKLGKGTNEERGRAIRLLLSMETGKEYKEPEKCELCGGVFNNLDKFAELCIKAAEGIEFETFWVGSRFPEEIEKKEEEIWRKFRVVSGEKITKEFNRELGKVIAVRYGKTPVKERPDVVFIVEPFSEKVELQVNPIYVAGRYRKLIRGIPQTPAPGFKESIATIICRAFKKHFHGKCIFKGAGREDVDVRMLGNGRPFVVEIKRPRKRKVNLKDIEEEINQSGKVEVLNLRFITPEEAERILTTRHRKVYEAIVYVKDGITKEEVEKVVKSLKNAEIKQRTPRRVLNSRADLVRVRKVYDVKGELIDDKHFKLRLVTDGGLYIKELISGDRGRTTPSVSEILGKEAWCEILDVLEVLDDVEGDN,soluble
4,MGSDKIHHHHHHTDDEEKDNNGQGSVSVETNYLPIADPYVMFYNNKYYAYGTGGTTAGEGFACFSSDDLKNWKREGQALSATDSYGTWGFWAPEVYYVESKKKFYLFYSAEEHICVATSTTPEGPFRQEVKQPIWSEKSIDTSLFIDDDGTPYLYFVRFTDGNVIWVAQMTDDLMSIKTETLNQCIKAEVSWELLQGKVAEGPSLLKKNGVYYLIYSANHYENKGYGVGYATSDTPMGPWVKYSKNPLLQGDAATGLVGTGHGAPFQCKDGSWKYIFHAHWSAAEIQPRTSYIKDFAISDQGVVTISGTVIKPRVLK,not soluble
5,MGSSHHHHHHGKTIFVIVPTNEEQVAFLEALAKQDELNFDWQNPPTEPGQPVVILIPSDMVEWFLEMLKAKGIPFTVYVEEGGSENLYFQGGGGGGRAAGTGDFTAAQRTNTLAVLQAFGRAIPKLGEKWAGNDFCSWEAVLCNAPDVYVSGISPTYAGTLPEMPVNVDYRHVVIKQLDFSEMGPGLSGTLPASWHSMTSLESLSIEKCESISGSVPPEWGSMTSLSVLNLRGTGISGTLPPQWSGMSKARSLQLQDCDLSGSLPSSWSAIPMLASVSLKGNKFCGVCRTRGIRRLVLLWTSRTSTRAATAWLLRTAQRPPLSPPPRQRPPRTSLTFPLRRGPRLSRLPQPALRHRLNPQPPLRHRLNPRPLLPQQTRRLLHQRRSARWMGVRCARGTPLRGARGAVRTTS,not soluble
6,MENEKIWIKELKEKRLAYGVSQNKLAVASHITRPYLSDIETGKAVPTQQVKEDLLNALERFNPDNPLEMLFDYVRIRFPTNDVAQIIGEVLRLNMDYMLHEDFGYYSYPEHYRFGDIVVLVSHDVSKGVLLELKGKGCRQFENFLLAQHRSWYDFFQDCMEHKGIFKRLDLAINDKTGILNIPDLAKKCKQEECISVFRSFKNYRSGELVHRDEKPYMGNTLYIGSLKSEVYFCIYEKDYEQYVKNDVPLEDAEVKNRFEIRLKNDRATQAMKDLLAHQQAEKTAFEIINRYIRFADKDDTKRRSDWKTNERWEWFIGKNRGALRLTTQPEPYSFERTLNWLHHQVAPTLKIASILDVLNGTTIISTMIQEAKLTEKHEKLIEQQHLAMEDLIT,not soluble
7,MKATGFMGPCYAKAMATRYRFGLEEYERLFRGIRDVELLAGEVYRMSPIGPKHAWSVARLNRLFTEALGDRAVVWPQNPIRIPPHSEPQPDLALLRPKSYGEGLPTPEDVLLLVEVAETSLEHDQGLKLSLYAQAGIPEVWVLDLKENRLHVYRTPKAGVYTEHRILLPGEEAEPLAFPGVRIPWS,soluble
8,MNNSNENDVILAWWDWGHFITYYARRSPIAQGGPSVGVALYLLGKLNENWAINLGVDYVIVSYYDFLKFGAILSTANLSKRYNIRGYGLVVLPLRASTGALIFENRGYRAIVRHDKSWNAVIIYNGQMIYPRKLYVEHKEGVQEIKPPESNSNTYLYVNLNYGLEHHHHHH,not soluble
9,MGSDKIHHHHHHMFYPEKRDGFSRTGKFEVEGRTVQTPAILEVGEIPEWDFGLAPTSLKFISEELYSRLRPINEEVEILTSLHLLSPRQLVQVFEDLSKEGVSPKPLYAASSALPSNVSLLIYLGADLVDNVLAIAKAYSGIYFLGEVEVEISKLRRLPCNCIHCRNRVVDEVENLLETTAKHNTEMLRMEVEKCRRLILNEELRNYVEGKVKLNPEFTAALRLSDSLRNHSTFPRFRKSRCNFSALESSSRFEVRYFFERALECYKPFSDTVLLLPCTARKPYLTSRTHRALRSKVKVNVNEIIISSPLVVPREFELLYPAVNYDTPVTGHWSEEEVSFVAGWLKRFIEKGGFRKVVAHVTGGYRKVVERVEDEVEAEVVYTAEKDVLSDESIERLKQEIESKGKVDLYRRILEHMLSYQFGITWSGKVAGRYPELELLEGKKRLARVDRIYGMLDIYEKIAAYLLEKNIYTVEIGDFEVKGTIFAGGVLRADEKIRPNDVVVFHNSRIFGVGLAAMSGKEMAGSEKGIAINVKRKFSF,not soluble
10,MNAEERFDRITRLTRRIFALPICVVTLVDASRQWFKSCQGLEVTETSRDISFCGHAINHDGIFIVNDAQMDPRFHDNPLVTQSPHIRFYAGYPLTIRGEYRVGTLCLIGNEPREFSADDIETLTDLGQMVEAELLSISLNTLDPLEHHHHHH,not soluble
11,MGSDKIHHHHHHMIKCIDVNDLKVGMYIHDLNCDWMSHPFLVNRFKVKDESEIRKIADAGIHEVYIDTRKGMDLPSARSEGEVRKQLESELREIASRERTVTRHVEAAEEFGRAQTIHHEANQIIRDILQDVRLGKQVELEQVEPQVEKLTGSILRNGGALLSLCRIKDKDNYTFQHSVSVGALMVSFCNALGMSKEVIHHAGIGGMLHDIGKMKVPDSILNKPGKLTEQEFMVMKCHVVESQKILHATRGISETAVLVAGQHHERHDGSGYPAGLKGEEISQLGQMAAIVDVYDALTSNRCYHKGMPPTDALRKIYEWSKFHFNPELVQAFMRVIGIYPVGTLVRLESGRLGVVVEQNEDNLVSPKVKVFFSTKSNTHIPPEVVDLSRRMGFGGGDRIVKHESPEKWKIDPLRFL,not soluble
12,MPDLFFVTLYDRQDLLKESMTFLNSEWPRSDGSREHSQKKSCRQSPPMSFLLLNKENDEILGHSRITHLPNRDHALWIESVMIKKDQRGLGLGKFLMKSTEKWMTEKGFNEAYLSTDDQCRFYESLGYEKCDPIVHSTTATCIFPAMNHFQNAAASNPSFLSKIAQPSASSTVSASAPPPPPPPPMAPKMVTRSTSPIVDVNTIDHQYMRKWLKPTE,soluble
13,MGHHHHHHSHMSEETATSDNDNSYARVRAVVMTRDDSSGGWLPLGGSGLSSVTVFKVPHQEENGCADFFIRGERLRDKMVVLECMLKKDLIYNKVTPTFHHWKIDDKKFGLTFQSPADARAFDRGIRRAIEDISQGCPESK,soluble
14,MTTYDRNRNAITTGSRVMVSGTGHTGKILSIDTEGLTAEQIRRGKTVVVEGCEEKLAPLDLIRLGMN,soluble
15,MLDIVLYEPEIPQNTGNIIRLCANTGFRLHLIEPLGFTWDDKRLRRSGLDYHEFAEIKRHKTFEAFLESEKPKRLFALTTKGCPAHSQVKFKLGDYLMFGPETRGIPMSILNEMPMEQKIRIPMTANSRSMNLSNSVAVTVYEAWRQLGYKGAVNLPEVKLEHHHHHH,soluble
16,MNKFKGNKVVLIGNGAVGSSYAFSLVNQSIVDELVIIDLDTEKVRGDVMDLKHATPYSPTTVRVKAGEYSDCHDADLVVICAGARQKPGETRLDLVSKNLKIFKSIVGEVMASKFDGIFLVATNPVDILAYATWKFSGLPKERVIGSGTILDSARFRLLLSEAFDVAPRSVDAQIIGEHGDTELPVWSHANIAGQPLKTLLEQRPEGKAQIEQIFVQTRDAAYDIIQAKGATYYGVAMGLARITEAIFRNEDAVLTVSALLEGEYEEEDVYIGVPAVINRNGIRNVVEIPLNDEEQSKFAHSAKTLKDIMAEAEELK,soluble
17,MGSDKIHHHHHHMKLNTLLQRLDQTVPLAFDTSLQNPEITSLQFDDDTTLSLHPTSLYLAVSADQTITLKGSVGKTAQLSLCAQMQLKNESQLAQLFDRAGCLLTSETSLQAQVNQLAIKAITEDFDTILNQAARTLGNPLIVLDLVGQPVAQSTQAPAISDLTAPAITSVQVQQALKKFRPAKDLIPQVILIQQSQLPLLLLCLPLAYRNNALGYLVMPACVRPLTAEQTAFFKAEAKIITSSLIKNRMMPTAASKRDQLLTMLLTEQQSGTFAAQFAKEHATLPTSMVLIKGEPRAGQSLAALKERLKYLLTPLFSQTLITLYHHQCLALVSVDLPTYNNPEFKADLATIADRANCRLIVSNQYTRPEDTIAAYAVCSRTAKLKSQPTHVTMCEDAFFDLMLAQVDHAEILPFFINPAVKALMDHDAENKTELLPTLDAYLESGENLTHTARQLFIHLNTLRYRLKHISDITGIDLKDAETCFKLGASFKVRRYLNHNKLTFTR,not soluble
18,MAFGWHSMHGSIIWFLQIAQLSTAISHDQNATAVHFLISNLFFLVSTGALWFELCAIFCDSSSSTSILSTSLLMLNYFSLKFSATGERHLVATNIAHIEAHTSIVGFMISLFTPLKETIITKYEMLVRT,soluble
19,EKKEQKEKEKKEQEIKKKFKLTGPIQVIHLAKACCDVKGGKNELSFKQGEQIEIIRITDNPEGKWLGRTARGSYGYIKTTAVEIDYDSLKLKKDLE,soluble
20,MPSFLEISPDKLNRLIGTPGAPRIIDVRTDEDFALDPRLVPGSIRRDHAEVASWADSIDADAVVVVCHRGAKLSHGVAAYLRHAGIEAESLAGGFEAWAAAGPAVPEAKLSRRDAQGRTVWVTRARPKIDRIACPWLIRRFIDPNAVFLFVPAPEVVAVGERFGAAPFDIEDVFWSHRGELCTFDVMVEEFGLASEPLLRLAQIVRAADTARLDLAPEASGLLAASLGLSRMYSDDLEQLEAGMLLYDAFFRWCRDATEETHNWPAPKKRALEHHHHHH,soluble
21,MHHHHHHSSGVDLGTENLYFQSMHGWGYGQDDGPSHWHKLYPIAQGDRQSPINIISSQAVYSPSLQPLELSYEACMSLSITNNGHSVQVDFNDSDDRTVVTGGPLEGPYRLKQFHFHWGKKHDVGSEHTVDGKSFPSELHLVHWNAKKYSTFGEAASAPDGLAVVGVFLETGDEHPSMNRLTDALYMVRFKGTKAQFSCFNPKCLLPASRHYWTYPGSLTTPPLSESVTWIVLREPICISERQMGKFRSLLFTSEDDERIHMVNNFRPPQPLKGRVVKASF,soluble
